Results published in patent publication US20250282833A1.

What was measured:
[1] = biological target: Anc80 AAV capsid viral protein VP1
[2] = biological target: T1, AdV5 pIIIa (human adenovirus C serotype 5) (UniProt P12537)
T1 sequence: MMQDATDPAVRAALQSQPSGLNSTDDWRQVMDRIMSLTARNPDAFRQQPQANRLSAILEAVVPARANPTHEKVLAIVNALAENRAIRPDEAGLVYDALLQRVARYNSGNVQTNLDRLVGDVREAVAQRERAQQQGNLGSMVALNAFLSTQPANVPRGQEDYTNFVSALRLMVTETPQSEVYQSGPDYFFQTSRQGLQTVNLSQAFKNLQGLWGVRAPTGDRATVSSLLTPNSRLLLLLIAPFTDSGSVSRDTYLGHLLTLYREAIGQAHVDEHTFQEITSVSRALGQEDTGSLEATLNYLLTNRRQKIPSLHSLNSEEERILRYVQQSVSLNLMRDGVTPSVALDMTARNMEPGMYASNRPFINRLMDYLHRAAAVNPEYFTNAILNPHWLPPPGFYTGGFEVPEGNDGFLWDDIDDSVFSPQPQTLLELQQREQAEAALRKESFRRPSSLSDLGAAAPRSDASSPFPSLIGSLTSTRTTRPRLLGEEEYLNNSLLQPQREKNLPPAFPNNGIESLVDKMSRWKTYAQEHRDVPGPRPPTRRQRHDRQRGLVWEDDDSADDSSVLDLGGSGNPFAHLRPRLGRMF

[3] = biological target: AdV5 Hexon (human adenovirus C serotype 5) (UniProt P04133)
[4] = biological target: AdV5 pVIII (human adenovirus C serotype 5) (UniProt P24936)
[5] = biological target: AdV5 Fiber (human adenovirus C serotype 5) (UniProt P11818)
[6] = biological target: AdV5 AVP (human adenovirus C serotype 5) (UniProt P03253)
[7] = biological target: T2, AdV5 pV (human adenovirus C serotype 5) (UniProt P24938)
T2 sequence: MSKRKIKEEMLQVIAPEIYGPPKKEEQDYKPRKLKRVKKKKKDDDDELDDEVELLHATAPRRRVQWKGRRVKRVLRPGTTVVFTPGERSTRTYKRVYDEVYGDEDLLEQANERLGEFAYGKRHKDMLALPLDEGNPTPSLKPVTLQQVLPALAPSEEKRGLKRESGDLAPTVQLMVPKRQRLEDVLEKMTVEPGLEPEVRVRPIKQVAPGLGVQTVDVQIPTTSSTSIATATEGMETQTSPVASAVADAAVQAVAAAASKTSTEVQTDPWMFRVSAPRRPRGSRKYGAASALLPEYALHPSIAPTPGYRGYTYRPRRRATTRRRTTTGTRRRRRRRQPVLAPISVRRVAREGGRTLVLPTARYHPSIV

[8] = biological target: AdV5 pVI (human adenovirus C serotype 5) (UniProt P24937)
[9] = biological target: AdV5 pIX (human adenovirus C serotype 5) (UniProt P03281)
[10] = biological target: T3, AdV5 pVII (human adenovirus C serotype 5) (UniProt P68951)
T3 sequence (chain, acetylation at S2 (100.0%)): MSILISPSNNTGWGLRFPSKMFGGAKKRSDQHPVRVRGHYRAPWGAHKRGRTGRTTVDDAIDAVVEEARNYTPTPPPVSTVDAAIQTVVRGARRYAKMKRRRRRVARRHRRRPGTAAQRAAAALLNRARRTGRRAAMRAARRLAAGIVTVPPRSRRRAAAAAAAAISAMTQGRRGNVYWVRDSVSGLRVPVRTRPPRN

[11] = biological target: T4, AdV5 pIVa2 (human adenovirus C serotype 5) (UniProt P03271)
T4 sequence: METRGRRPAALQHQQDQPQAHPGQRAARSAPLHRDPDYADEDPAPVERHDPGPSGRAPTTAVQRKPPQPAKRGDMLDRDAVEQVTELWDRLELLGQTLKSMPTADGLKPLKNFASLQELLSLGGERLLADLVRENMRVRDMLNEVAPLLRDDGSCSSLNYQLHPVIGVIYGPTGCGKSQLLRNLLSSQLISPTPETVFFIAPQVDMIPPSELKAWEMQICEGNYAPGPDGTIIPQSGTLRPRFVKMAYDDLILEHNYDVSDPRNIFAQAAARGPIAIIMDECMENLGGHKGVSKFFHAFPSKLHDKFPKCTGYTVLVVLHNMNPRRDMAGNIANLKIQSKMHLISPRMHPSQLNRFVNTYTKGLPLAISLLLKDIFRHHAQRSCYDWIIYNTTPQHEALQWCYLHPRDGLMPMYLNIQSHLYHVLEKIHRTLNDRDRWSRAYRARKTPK

[12] = biological target: AdV5 pTP (human adenovirus C serotype 5) (UniProt P04499)
[13] = biological target: T5, AdV5 pµ (human adenovirus C serotype 5) (UniProt Q2KS10)
T5 sequence: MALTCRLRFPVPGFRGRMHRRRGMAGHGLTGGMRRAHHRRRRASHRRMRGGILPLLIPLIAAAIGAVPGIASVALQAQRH

[14] = biological target: AdV5 Penton base (human adenovirus C serotype 5) (UniProt P12538)
Sequence of AdV5 Penton base (human adenovirus C serotype 5) (P12538 whole entry): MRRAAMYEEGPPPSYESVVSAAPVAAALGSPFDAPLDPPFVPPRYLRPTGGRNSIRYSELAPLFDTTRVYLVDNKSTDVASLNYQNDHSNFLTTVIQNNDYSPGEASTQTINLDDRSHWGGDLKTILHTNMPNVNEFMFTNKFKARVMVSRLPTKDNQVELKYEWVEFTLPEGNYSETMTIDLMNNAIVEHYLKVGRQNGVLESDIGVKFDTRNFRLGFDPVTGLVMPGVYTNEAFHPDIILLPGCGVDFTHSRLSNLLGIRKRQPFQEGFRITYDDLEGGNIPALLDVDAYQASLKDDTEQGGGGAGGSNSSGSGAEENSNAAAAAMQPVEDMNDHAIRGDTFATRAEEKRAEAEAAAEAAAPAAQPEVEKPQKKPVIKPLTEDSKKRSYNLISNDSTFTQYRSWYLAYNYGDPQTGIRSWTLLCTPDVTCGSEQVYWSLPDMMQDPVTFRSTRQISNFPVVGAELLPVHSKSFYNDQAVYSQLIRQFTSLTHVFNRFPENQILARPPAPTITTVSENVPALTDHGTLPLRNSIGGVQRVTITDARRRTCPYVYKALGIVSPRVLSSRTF

Sequence of Sequencing grade trypsin (P00761 9-231 limits assumed): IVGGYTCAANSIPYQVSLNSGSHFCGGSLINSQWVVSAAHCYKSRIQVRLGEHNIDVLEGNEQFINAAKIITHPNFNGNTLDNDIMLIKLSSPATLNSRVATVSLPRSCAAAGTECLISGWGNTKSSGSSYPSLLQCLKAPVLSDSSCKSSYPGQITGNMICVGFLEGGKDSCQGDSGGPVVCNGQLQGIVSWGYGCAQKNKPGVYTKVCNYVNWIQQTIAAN

Row | Substance | sequence coverage by LC-MS/MS after Asp-N digestion [1] [%] | Sequence Coverage (%) by LC-MS/MS after trypsin digestion [2] [%] | Sequence Coverage (%) by LC-MS/MS after trypsin digestion [3] [%] | Sequence Coverage (%) by LC-MS/MS after trypsin digestion [4] [%] | Sequence Coverage (%) by LC-MS/MS after trypsin digestion [5] [%] | Sequence Coverage (%) by LC-MS/MS after trypsin digestion [6] [%] | Sequence Coverage (%) by LC-MS/MS after trypsin digestion [7] [%] | Sequence Coverage (%) by LC-MS/MS after trypsin digestion [8] [%] | Sequence Coverage (%) by LC-MS/MS after trypsin digestion [9] [%] | Sequence Coverage (%) by LC-MS/MS after trypsin digestion [10] [%] | Sequence Coverage (%) by LC-MS/MS after trypsin digestion [11] [%] | Sequence Coverage (%) by LC-MS/MS after trypsin digestion [12] [%] | Sequence Coverage (%) by LC-MS/MS after trypsin digestion [13] [%] | Sequence Coverage (%) by LC-MS/MS after trypsin digestion [14] [%]
1 | Asp-N protease (enzyme) | 99.2 | – | – | – | – | – | – | – | – | – | – | – | – | –
2 | Sequencing grade trypsin (from UniProt P00761) (enzyme) | – | 99.1 | 91.4 | 93.8 | 89.2 | 91.7 | 94.3 | 98.6 | 99.3 | 91.9 | 84.2 | 55.1 | 92.5 | 98.9
